System: MS2 coat protein
Experiment: apparent KD of MS2 coat protein; designed switch direction (-1 OFF switch, 1 ON switch): -1; higher = weaker reporter binding
Procedure, shortened: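 Transcription of designed RNA switches on Illumina chips was done by stalled E. coli RNA polymerase. SNAP-549-labelled MS2 coat protein was then titrated in doubling steps from 0.7 or 1.5 nM to 3 µM, with steps of 0.8–1.5 h at the lowest and 10–20 min at the highest concentration. The per-design median over clusters of curve-fitted normalised fluorescence is reported as apparent KD.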

[1] = input ligand: microRNA oligo, concentration not stated
[2] = Eterna round: R95, input ligand: FMN 200 uM
[3] = Eterna round: R95, input ligand: microRNA oligo, concentration not stated
[4] = Eterna round: R95, input ligand: none

AGUACUAACACGUGAGUGUUAGUACAAUAAGCUUGUGAAACAUGAGGAUCACCCAUGUCCUCAUAAGCUCGUCUUAU [salish99_TOv2_r3_061] (Eterna round: R96, puzzle: Sensor v3, turn-off variant 2)
apparent KD of MS2 coat protein (input ligand: FMN 200 uM): 0.0165 µM
apparent KD of MS2 coat protein [1]: 0.496 µM
apparent KD of MS2 coat protein (input ligand: none): 0.0185 µM

AGUACUAACACGUGAGUGUUAGUACAAUAAGCUUGUGAAACAUGAGGAUCACCCAUGUCCUCAUAAGCUCGUCUUAU [salish99_TOv2_r3_061] (puzzle: Sensor v3, turn-off variant 2)
apparent KD of MS2 coat protein [2]: 0.0174 µM
apparent KD of MS2 coat protein [3]: 1.07 µM
apparent KD of MS2 coat protein [4]: 0.0156 µM

AGUAGAUCUACGCUUGCGUGGAUCUGCAAUGCAGGUGUUACAUGAGGAUCACCCAUGUCCUCGUUUGCUCGUCUUAG [JL turnoff v2 99.11] (puzzle: Sensor v3, turn-off variant 2)
apparent KD of MS2 coat protein [2]: 0.145 µM
apparent KD of MS2 coat protein [3]: 0.508 µM
apparent KD of MS2 coat protein [4]: 0.133 µM

AGUAGAUCUACGCUUGCGUGGAUCUGCGAGGCAGGUGUAACAUGAGGAUCACCCAUGUCCUCAUUUGUUCGUCUUAU [JL turnoff v2 99.19] (puzzle: Sensor v3, turn-off variant 2)
apparent KD of MS2 coat protein [2]: 0.379 µM
apparent KD of MS2 coat protein [3]: 0.377 µM
apparent KD of MS2 coat protein [4]: 0.477 µM

AGUAGGAGAGGAUAUACAUGAAGUCGAAAGACUUCGACUCAACAUGAGGAUCACCCAUGUAGAAGGCUCCUACA [Omei Ex2 BD A7] (Eterna round: R97, puzzle: Exclusion 2)
apparent KD of MS2 coat protein (input ligand: FMN 200 uM): 0.126 µM
apparent KD of MS2 coat protein (input ligand: none): 0.0473 µM

AGUAGGUCUACCUUGGUGGAUCUGCAUAAUGCAAGUGUUACAUGAGGAUCACCCAUGUCCUCAUUUGCUCGUCUUAU [JL turnoff v2 99.22] (puzzle: Sensor v3, turn-off variant 2)
apparent KD of MS2 coat protein [2]: 0.0394 µM
apparent KD of MS2 coat protein [3]: 0.105 µM
apparent KD of MS2 coat protein [4]: 0.0435 µM

AGUAGUAGUAUCCGUUCUUACAUGAGGAUCACCCAUGUUUCUAGACGUGCACGCGAUGCUCGUCAGACUACCAGAUG [salish99_TOv1_r3_054] (puzzle: Sensor v3, turn-off variant 1)
apparent KD of MS2 coat protein [2]: 0.0612 µM
apparent KD of MS2 coat protein [3]: 0.0723 µM
apparent KD of MS2 coat protein [4]: 0.0689 µM

AGUCGUAGACAGGAUAUGCGGCUAAUAAAUAAAGCAGAAGGGUCUACUUGAGGAUCACCCAAGUGGGCGGUCAA [jl-ex6-4.21 ViennaUCT mod] (Eterna round: R97, puzzle: Exclusion 6)
apparent KD of MS2 coat protein (input ligand: FMN 200 uM): 0.186 µM
apparent KD of MS2 coat protein (input ligand: none): 0.0518 µM

AGUGCGUAUGUGAGGAUAUGCUGGUCCUUGGCUCGGCAGAAGGCACAUGAGGAUCACCCAUGUGGUGUCGUACG [salish99_Bmod_ex4_065] (puzzle: Brourd's mod of Exclusion 4)
apparent KD of MS2 coat protein [3]: 0.0488 µM

AGUGUGUUAGGAUAUCGGAUAUGCUGGAGGAGGUGGAGUUACGAGAAGGAACAUGAGGAUCACCCAUGUAGGAC [JR_Exclu4_Sub049] (puzzle: Exclusion 4)
apparent KD of MS2 coat protein [3]: 0.0257 µM

AGUUAGAUAGGAUAUGCCCGAGAUAACAUGAGGAUCACCCAUGUGACCGAAUCUAUUCUAGCAGAAGGGUUUAUGA [Mod of ViennaUCT 19 - Jieux - Exclusion 5] (Eterna round: R97, puzzle: Exclusion 5)
apparent KD of MS2 coat protein (input ligand: FMN 200 uM): 0.0402 µM
apparent KD of MS2 coat protein (input ligand: none): 0.095 µM

AGUUAUGUAGGAUAUGCACGUGACAACUUGAGGAUCACCCAAGUGAUUGCAGGCUGGGCGGCAGAAGGGCAGUUGU [Diedbi] (Eterna round: R97, puzzle: Exclusion 5)
apparent KD of MS2 coat protein (input ligand: FMN 200 uM): 0.153 µM
apparent KD of MS2 coat protein (input ligand: none): 0.104 µM

AGUUAUUCAGGAUAUGGUGUGUUAUACAUGAGGAUCACCCAUGUGGGUCCUGGUUUGGCCUCAGAAGGGAAUGUUA [salish99_ex5_r4_123] (Eterna round: R97, puzzle: Exclusion 5)
apparent KD of MS2 coat protein (input ligand: FMN 200 uM): 0.507 µM
apparent KD of MS2 coat protein (input ligand: none): 0.6 µM

AGUUGGCGAGGAUAUACAUGAGGAUCACCCAUGUGAAAGAGAAGAGUGAGGAAGAAAAGUAGAAGGCGCUGACA [Mat - Exclusion 3 - Mod of Salish D39] (puzzle: Exclusion 3)
apparent KD of MS2 coat protein [2]: 0.135 µM
apparent KD of MS2 coat protein [3]: 0.0693 µM
apparent KD of MS2 coat protein [4]: 0.0752 µM

AGUUUUAAUGAGGAUAUCGUAUUGGAUAUAGUGCGAGAAGGCAUUACAUGAGGAUCACCCAUGUUUUGUUGGGA [JR_Ex6_Sub008] (Eterna round: R97, puzzle: Exclusion 6)
apparent KD of MS2 coat protein (input ligand: FMN 200 uM): 0.0581 µM
apparent KD of MS2 coat protein (input ligand: none): 0.0245 µM

AUAAGCUUUGAGAUCCUUAACAUGAGGAUCACCCAUGUUCGUCUUAUGAUGGUCUGAUCCCUGAGGAUCGGACCGUG [Mat - Sensor v3 - turn-off var 1 - JL Mod - D2] (puzzle: Sensor v3, turn-off variant 1)
apparent KD of MS2 coat protein [2]: 0.277 µM
apparent KD of MS2 coat protein [3]: 0.00574 µM
apparent KD of MS2 coat protein [4]: 0.38 µM

AUAAGGGCAGGAUAUGCAGAAAAGAUUGGCGUGGUCCUGACACAUGAGGAUCACCCAUGUAGAAGGGCCUAGCC [Maquzaar] (Eterna round: R97, puzzle: Exclusion 2)
apparent KD of MS2 coat protein (input ligand: FMN 200 uM): 0.0135 µM
apparent KD of MS2 coat protein (input ligand: none): 0.0148 µM

AUAAUACAUGUAGGAUAUCUGCACGUUUAGUGCAGAGAAGGACAUGAGGAUCACCCAUGUAAUUAAGAUCAAUUAUUAAAUUAU [ENG1/3-D2] (Eterna round: R96, puzzle: Exclusion NG 1)
apparent KD of MS2 coat protein (input ligand: FMN 200 uM): 0.293 µM
apparent KD of MS2 coat protein [1]: 0.0547 µM
apparent KD of MS2 coat protein (input ligand: none): 0.0662 µM

AUAAUACAUGUAGGAUAUGCGUGGCGAAGCUAUGCAGAAGGACAUGAGGAUCACCCAUGUCUUAGCGUCUGCGUACAGAUGCUA [JL eng1 1.35 mod 2] (Eterna round: R96, puzzle: Exclusion NG 1)
apparent KD of MS2 coat protein (input ligand: FMN 200 uM): 0.0279 µM
apparent KD of MS2 coat protein [1]: 0.0121 µM
apparent KD of MS2 coat protein (input ligand: none): 0.0164 µM

AUAAUGUAAGGAUAUCAGUCGACUAGCUGCGGCUAGUCGACUGAGAAGGUACAUGAGGAUCACCCAUGUGAAUA [E4/16-A3] (Eterna round: R97, puzzle: Exclusion 4)
apparent KD of MS2 coat protein (input ligand: FMN 200 uM): 0.224 µM
apparent KD of MS2 coat protein (input ligand: none): 0.0417 µM

AUAAUGUAAGGAUAUCAGUCGUUAAUAAUUAAUUAAUCGACUGAGAAGGUACAUGAGGAUCACCCAUGUGAUCA [E4/8-B2] (Eterna round: R97, puzzle: Exclusion 4)
apparent KD of MS2 coat protein (input ligand: FMN 200 uM): 0.0441 µM
apparent KD of MS2 coat protein (input ligand: none): 1 µM

AUAAUGUCAGGAUAUCAGUCGACUAGCGAUAGCUAGUCGACUGAGAAGGGACAUGAGGAUCACCCAUGUGUUUC [E4/14-A4] (Eterna round: R97, puzzle: Exclusion 4)
apparent KD of MS2 coat protein (input ligand: FMN 200 uM): 0.00273 µM
apparent KD of MS2 coat protein (input ligand: none): 0.17 µM

AUAAUGUCAGGAUAUCAGUCGUACAGCUGCGGCUGUACGACUGAGAAGGGACAUGAGGAUCACCCAUGUGGUCA [E4/6-A3] (Eterna round: R97, puzzle: Exclusion 4)
apparent KD of MS2 coat protein (input ligand: FMN 200 uM): 0.0202 µM
apparent KD of MS2 coat protein (input ligand: none): 0.236 µM

AUAAUGUCAGGAUAUCGAACUUACUACUUCGGUAGUAAGUUCGAGAAGGGACAUGAGGAUCACCCAUGUGAUCA [E4/1-A4] (Eterna round: R97, puzzle: Exclusion 4)
apparent KD of MS2 coat protein (input ligand: FMN 200 uM): 0.0418 µM
apparent KD of MS2 coat protein (input ligand: none): 0.109 µM

AUAAUGUCAGGAUAUCGAGACUACUGCCUCGGCAGUAGUCUCGAGAAGGGACAUGAGGAUCACCCAUGUGAUCA [E4/1-A2] (Eterna round: R97, puzzle: Exclusion 4)
apparent KD of MS2 coat protein (input ligand: FMN 200 uM): 0.831 µM
apparent KD of MS2 coat protein (input ligand: none): 0.0452 µM

AUACCACGAGGAUAUCGUCUAUAAUACAUGAGGAUCACCCAUGUUAUAUCUGUAAUGUUUCGAGAAGGCGUUUGUU [JR_E5_Sub085] (puzzle: Exclusion 5)
apparent KD of MS2 coat protein [3]: 0.0213 µM
